Key:
mouse insulin (mouse) = test: ELISA on mouse insulin; No Ag well 0.10
rat insulin (rat) = test: ELISA on rat insulin; No Ag well 0.10

Chain of mouse insulin (mouse) (P01308 whole entry): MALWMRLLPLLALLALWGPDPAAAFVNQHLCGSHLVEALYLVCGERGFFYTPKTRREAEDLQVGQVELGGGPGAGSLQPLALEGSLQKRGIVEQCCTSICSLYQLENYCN

OD 450 (mouse insulin (mouse)): 2.52 OD 450
OD 450 (rat insulin (rat)): 3.06 OD 450
Substance: positive control anti-rat insulin antibody
